Reference: patent US20080254024A1 (Genentech, published 2008)
Values belong to the binder of their own block, whether it stands above or below them.

Experiments:
[1] = molecular target: T1, endogenous human EphB2 on cells or tissue (HT1080-GD vector control cells, colorectal cancer cell lines, … (human, UniProt P29323 19-1055)); test: Scatchard analysis of 125I-labelled MAb 2H9 competed with unlabelled MAb 2H9 on HT1080-GD cells
T1 construct: whole, on cells; also called vector control HT1080 cell line
T1 sequence (looked up): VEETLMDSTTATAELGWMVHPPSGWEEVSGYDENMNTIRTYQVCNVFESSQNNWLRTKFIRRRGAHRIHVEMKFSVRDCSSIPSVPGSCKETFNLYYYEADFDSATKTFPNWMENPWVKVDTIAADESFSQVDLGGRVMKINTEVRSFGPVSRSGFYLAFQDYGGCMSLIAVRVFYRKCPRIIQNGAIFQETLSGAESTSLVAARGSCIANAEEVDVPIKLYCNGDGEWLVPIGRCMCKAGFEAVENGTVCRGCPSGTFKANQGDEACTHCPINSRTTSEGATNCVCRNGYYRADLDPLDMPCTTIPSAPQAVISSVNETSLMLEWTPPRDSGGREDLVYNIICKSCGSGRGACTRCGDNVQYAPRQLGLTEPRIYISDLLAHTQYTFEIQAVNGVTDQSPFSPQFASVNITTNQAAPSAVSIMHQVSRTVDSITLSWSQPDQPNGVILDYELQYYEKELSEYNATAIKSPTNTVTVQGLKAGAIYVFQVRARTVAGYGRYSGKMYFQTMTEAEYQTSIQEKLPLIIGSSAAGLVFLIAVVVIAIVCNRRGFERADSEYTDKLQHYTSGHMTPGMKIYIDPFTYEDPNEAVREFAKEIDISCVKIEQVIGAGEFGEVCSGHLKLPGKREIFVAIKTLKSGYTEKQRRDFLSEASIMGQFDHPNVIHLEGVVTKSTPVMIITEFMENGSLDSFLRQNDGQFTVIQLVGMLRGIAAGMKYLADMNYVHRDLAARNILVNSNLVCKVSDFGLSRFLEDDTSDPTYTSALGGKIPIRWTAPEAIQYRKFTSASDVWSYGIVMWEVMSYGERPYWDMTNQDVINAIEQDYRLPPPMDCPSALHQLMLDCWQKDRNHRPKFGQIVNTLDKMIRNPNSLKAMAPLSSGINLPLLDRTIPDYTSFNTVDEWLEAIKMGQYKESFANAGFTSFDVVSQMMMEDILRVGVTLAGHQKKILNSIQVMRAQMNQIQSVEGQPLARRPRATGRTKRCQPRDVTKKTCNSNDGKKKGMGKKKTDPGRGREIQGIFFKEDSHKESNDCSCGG

[2] = molecular target: T1, endogenous human EphB2 on cells or …; test: saturation binding on HT1080-GD cells, HRP-conjugated secondary antibody, absorbance at 450 nm
[3] = molecular target: T1, endogenous human EphB2 on cells or …; test: Scatchard analysis, 125I-labeled MAb 2H9 with unlabeled MAb 2H9 on HT1080-GD cells, on ice; HT1080-GD cells, Scatchard analysis
[4] = molecular target: T2, NH2-terminal GD epitope-tagged human EphB2 overexpressed on cells (HT1080-EphB2, SVT2-EphB2) (human, UniProt P29323 19-1055); test: cell-based or functional assay
T2 sequence (looked up): T1 sequence (looked up)

[5] = molecular target: T2, NH2-terminal GD epitope-tagged human …; test: saturation binding on HT1080-EphB2 cells, HRP-conjugated secondary antibody, absorbance at 450 nm
[6] = molecular target: T2, NH2-terminal GD epitope-tagged human …; test: Scatchard analysis, 125I-labeled MAb 2H9 with unlabeled MAb 2H9 on HT1080-EphB2 cells, on ice
[7] = molecular target: T3, polyhis-tagged human EphB2 (baculovirus-derived His8-tagged EphB2 receptor) (human, UniProt P29323 19-543); test: SPR (BIAcore 3000), antibody immobilized on CM5 chip, polyhis-tagged EphB2 injected, 1:1 model
T3 construct: extracellular domain; also called polyhis tagged EphB2; purified EphB2 immunogen; not shown: His8 tag
T3 sequence (looked up): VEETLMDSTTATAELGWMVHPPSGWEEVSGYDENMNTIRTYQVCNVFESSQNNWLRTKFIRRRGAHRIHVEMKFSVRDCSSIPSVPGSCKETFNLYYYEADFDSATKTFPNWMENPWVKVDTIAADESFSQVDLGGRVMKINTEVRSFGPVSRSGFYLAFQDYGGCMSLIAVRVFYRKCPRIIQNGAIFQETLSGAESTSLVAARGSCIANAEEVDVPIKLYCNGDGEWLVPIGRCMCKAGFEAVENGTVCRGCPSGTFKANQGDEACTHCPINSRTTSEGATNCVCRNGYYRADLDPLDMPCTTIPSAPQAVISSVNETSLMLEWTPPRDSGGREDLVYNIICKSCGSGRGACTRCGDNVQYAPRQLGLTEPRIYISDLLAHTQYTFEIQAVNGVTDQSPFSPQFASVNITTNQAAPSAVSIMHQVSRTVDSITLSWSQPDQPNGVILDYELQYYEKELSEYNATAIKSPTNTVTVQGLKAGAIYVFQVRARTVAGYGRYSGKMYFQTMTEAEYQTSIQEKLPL
Method: Binding affinity of Mab 2H9 was determined by surface plasmon resonance using Pharmacia BIAcore® 3000 (BIAcore AB, Uppsala, Sweden) at room temperature (see, e.g., Morton et al. (1998) Methods in Enzymology, 295, 268-294). Anti-EphB2 antibodies were immobilized to the sensor chip (CM5) through primary amine groups. The carboxymethylated sensor chip surface matrix was activated by injecting 20 μl of a mixture of 0.025 M N-hydroxysuccinimide and 0.1 M N-ethyl-N′(dimethylaminopropyl) carbodiimide at 5 μl/min. 5-10 μl of 10 μg/ml solution of anti-EphB2 antibodies in 10 mM sodium acetate, pH 4.5, were injected at 5 μl/min. After coupling, unoccupied sites on the chip were blocked by injecting 20 μl of 1M ethanolamine, pH 8.5. The running buffer was PBS containing 0.05% polysorbate 20. For kinetic measurements, two-fold serial dilutions of polyhis-tagged EphB2 in running buffer were injected over the flow cells for 3 minutes at a flow rate of 30 μl/min and the bound polyhis tagged EphB2 was allow to dissociate for 20 minutes. The binding surface was regenerated by injecting 20 μl of 10 mM glycine-HCl (pH 1.5). […] There was no significant non-specific binding of polyhis tagged EphB2 to flow cell one. For calculate apparent binding affinity, data were analyzed using a 1:1 binding model using global fitting. The association and dissociation rate constants were fitted simultaneously (BIAevaluation software).

[8] = molecular target: T2, NH2-terminal GD epitope-tagged human …; test: Scatchard analysis of 125I-labelled MAb 2H9 competed with unlabelled MAb 2H9 on HT1080-EphB2 cells

Kd [1]: 4.4 nM | EC50 (read off the curve) [2]: ~0.02 µg/mL | Kd [3]: ~4 nM | internalization of 125I-labeled MAb 2H9 by HT1080-EphB2 cells after shift to 37° C. for 1 hour [4]: ~2 fold | EC50 (read off the curve) [5]: ~0.02 µg/mL | Kd [6]: ~4 nM | Kd [7]: 0.12 nM | koff [7]: 1.03e-05 s⁻¹ | kon [7]: 82800 M⁻¹ s⁻¹ | Kd [8]: 4.1 nM
B1: anti-EphB2 monoclonal antibody produced by hybridoma cell line 2H9.11.14 (ATCC PTA-6606) (antibody, IgG1, V domains shown)
VH: QVQLQQSGAELAKPGASVKMSCKASGYTFTSYWMHWVKQRPGQGLEWIGFINPSTGYTDYNQKFKDKATLTVKSSNTAYMQLSRLTSEDSAVYYCTRRLKLLRYAMDYWGQGTTLTVSA
VL: DIVMTQSPSSLSVSAGEKVTMNCKSSQSLLNSGNQENYLAWYQQKPGQPPKLLIYGASTRESGVPDRFTGSGSGTDFTLTISSVQAEDLAVYYCQNDHSYPFTFGAGTKVEIKR
notes: 125I-labelled in the Scatchard and uptake assays; also called Mab 2H9; MAb 2H9

EC50 (read off the curve) [5]: ~0.02 µg/mL
B2: immunoconjugate 2H9-MC-vc-PAB-MMAE (antibody, mouse IgG1, V domains shown)
VH: B1 VH
VL: B1 VL
modifications: MC-vc-PAB-MMAE drug-linker covalently coupled to the antibody; sites and chain not stated
notes: also called MMAE-vc-2H9; 2H9-vc-MMAE
antibody concentration required for half-maximal cell killing (IC50), Cell Titer-Glo viability after 48 h [4]: 0.006 µg/mL
